This is an account of results in US20170240629A1 (Hoffmann-La Roche, published 2017).

Assay [1] addresses T1, human IL-1beta (human, UniProt P01584 117-269). The assay is described as follows: ELISA, human IL-1beta (Peprotech) coated, Example 4 variant 1. A general note: An ELISA detects its analyte on a solid surface through an enzyme-linked reagent.
Method: (§1) The binding analysis was carried out using an enzyme-linked immunosorbent assay (ELISA)-based technology. […] The EC₅₀ was calculated with a four parameter logistic model using GraphPad Prism 6.0 software.
A further assay deals with rat IL-1beta (rat, UniProt Q63264 117-268). Nature of the assay: SPR (BIAcore); antibody captured by anti-Fc, IL-1beta injected. (In general: Surface plasmon resonance follows binding to a sensor surface in real time, without labels.)
Chain of rat IL-1beta (Q63264 117-268 limits assumed): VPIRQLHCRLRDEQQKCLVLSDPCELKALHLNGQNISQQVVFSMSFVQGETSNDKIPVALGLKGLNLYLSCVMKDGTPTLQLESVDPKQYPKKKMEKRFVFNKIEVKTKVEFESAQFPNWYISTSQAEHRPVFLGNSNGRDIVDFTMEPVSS
Assay [2] concerns the target T2, His-tagged human IL-1beta (human, UniProt P01584 117-269).
T2 construct: also called human His-tagged IL-1beta protein (Sino Biologics 10139-H07E); not shown: His tag
The assay is described as follows: competition ELISA, His-tagged IL-1beta coated; competitor Fc-tagged human IL-1 receptor type I (Example 7); IL-1beta receptor I (example 7).

Assay [3] concerns the target T1, human IL-1beta. The assay is described as follows: cell-based or functional assay.
Assay [4] addresses T1, human IL-1beta. Nature of the assay: ELISA, human IL-1beta (Peprotech) coated, Example 4 variant 1; based on MW 150 kDa.
Method: as §1
The target in assay [5] is T1, human IL-1beta. The assay is described as follows: cell-based or functional assay. This is another data set of the same source.
In assay [6] the target is T2, His-tagged human IL-1beta. The assay is described as follows: ELISA, His-tagged human IL-1beta coated, Example 4 variant 2.
Method: as §1
Assay [7] has as its target T3, cynomolgus IL-1beta (cynomolgus, UniProt P79182 117-268). The assay is described as follows: ELISA, cynomolgus IL-1beta coated, Example 5; based on MW 150 kDa.
Method: as §1
For assay [8], the target named is T3, cynomolgus IL-1beta. Nature of the assay: ELISA, cynomolgus IL-1beta coated, Example 5.
Method: as §1
In assay [9] the target is T2, His-tagged human IL-1beta. Nature of the assay: ELISA, His-tagged human IL-1beta coated, Example 4 variant 2; based on MW 150 kDa.
Method: as §1
Assay [10] addresses T4, murine IL-1beta (murine, UniProt P10749 118-269). Nature of the assay: ELISA, murine IL-1beta coated, Example 6; based on MW 150 kDa.
Method: as §1
Assay [11] concerns the target T4, murine IL-1beta. The assay is described as follows: ELISA, murine IL-1beta coated, Example 6.
Method: as §1
The target in assay [12] is T4, murine IL-1beta. The assay is described as follows: SPR (BIAcore); antibody captured by anti-Fc, IL-1beta injected.
Method: (§2) All experiments were performed at 25° C. using HBS-P (10 mM His, 140 mM NaCl, 0.05% Tween 20 pH 7.4) as running and dilution buffer. Anti-human or anti-mouse Fc antibodies were immobilized on a Series S CM5 Sensor Chip (GE Healthcare) using standard amine coupling chemistry. […] The dissociation phase was monitored for 600 sec by washing with running buffer. […] The surface was regenerated by injecting 3 M MgCl2 (for anti-human Fc antibody) or 10 mM Glycine pH 1.5 (for anti-mouse Fc antibody) for 60 sec at a flow rate of 5 μl/min. Bulk refractive index differences were corrected by subtracting the response obtained from a mock surface. Blank injections were subtracted (double referencing). The derived curves were fitted to a 1:1 Langmuir binding model using the BIAevaluation software.
The target of assay [13] is T1, human IL-1beta. Nature of the assay: SPR inhibition; 10 nM human IL-1beta pre-incubated with antibody, injected over immobilised human IL-1RI (competitor).
Method: All experiments were performed at 25° C. using HBS-P (10 mM His, 140 mM NaCl, 0.05% Tween 20 pH 7.4) as running and dilution buffer. Human IL-1RI was immobilized on a Series S CM5 Sensor Chip (GE Healthcare) using standard amine coupling chemistry. […] The surface was regenerated by injecting 10 mM NaOH for 60 sec at a flow rate of 5 μl/min. Bulk refractive index differences were corrected by subtracting the response obtained from a mock surface.
The target in assay [14] is T1, human IL-1beta. Nature of the assay: SPR (BIAcore); antibody captured by anti-Fc, IL-1beta injected.
Method: as §2
Assay [15] has as its target T2, His-tagged human IL-1beta. Nature of the assay: competition ELISA, His-tagged IL-1beta coated; competitor Fc-tagged human IL-1 receptor type I (Example 7); based on MW 150 kDa.
Method: (§3) The IC₅₀ was calculated with a four parameter logistic model using GraphPad Prism 6.0 software.
In another assay the target is rabbit IL-1beta (rabbit, UniProt P14628 117-268, limits assumed). Nature of the assay: SPR (BIAcore).
Chain of rabbit IL-1beta (P14628 117-268 limits assumed): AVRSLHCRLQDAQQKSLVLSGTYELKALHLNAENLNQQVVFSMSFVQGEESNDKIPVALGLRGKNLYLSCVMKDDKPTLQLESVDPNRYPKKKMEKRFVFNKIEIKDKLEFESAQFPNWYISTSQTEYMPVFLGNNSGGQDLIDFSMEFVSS
For assay [16], the target named is T2, His-tagged human IL-1beta. The assay is described as follows: competition ELISA, His-tagged IL-1beta coated; competitor Fc-tagged human IL-1 receptor type II (Example 8); IL-1beta receptor II (example 8).
Method: as §3
Assay [17] concerns the target T2, His-tagged human IL-1beta. Nature of the assay: competition ELISA, His-tagged IL-1beta coated; competitor Fc-tagged human IL-1 receptor type II (Example 8); based on MW 150 kDa.
Method: as §3
Assay [18] has as its target T1, human IL-1beta. Nature of the assay: cell-based or functional assay. The source holds these as a separate data set.
In assay [19] the target is T3, cynomolgus IL-1beta. Nature of the assay: SPR (BIAcore); antibody captured by anti-Fc, IL-1beta injected.
Method: as §2
The target of assay [20] is T5, human PDGF-BB (human, UniProt P01127 82-190).
T5 construct: also called huPDGF-BB
T5 sequence (P01127 82-190 limits assumed): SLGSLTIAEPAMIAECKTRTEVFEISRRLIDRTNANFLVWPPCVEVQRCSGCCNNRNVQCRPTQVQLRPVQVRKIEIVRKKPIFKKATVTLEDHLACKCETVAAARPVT
Nature of the assay: SPR; whole antibody.

In assay [21] the target is T5, human PDGF-BB. The assay is described as follows: cell-based or functional assay.
Assay [22] deals with T5, human PDGF-BB. Nature of the assay: ELISA, antigen coated.
For another assay, the target named is T6, murine PDGF-BB (murine, UniProt P31240 82-190).
T6 construct: also called muPDGF-BB
T6 sequence (P31240 82-190 limits assumed): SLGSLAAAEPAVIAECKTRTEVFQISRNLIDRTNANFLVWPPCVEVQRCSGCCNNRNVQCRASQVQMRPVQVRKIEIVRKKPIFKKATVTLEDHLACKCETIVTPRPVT
The assay is described as follows: ELISA, antigen coated.

The next assay deals with T7, human PDGF-AA (human, UniProt P04085 87-211, limits assumed).
T7 construct: also called huPDGF-AA
Nature of the assay: ELISA, antigen coated.

In a further assay the target is rat PDGF-BB (rat, UniProt Q05028 74-182). Nature of the assay: ELISA, antigen coated.
Chain of rat PDGF-BB (Q05028 74-182 limits assumed): as the sequence (P31240 82-190 limits assumed) above, with I83V, I102V counted along it
The target of assay [23] is T5, human PDGF-BB. The assay is described as follows: SPR; apparent KD** of the whole antibody.
Assay [24] concerns the target T5, human PDGF-BB. Nature of the assay: SPR (BIAcore T200) kinetic screening; PDGF-BB coupled on C1 chip, antibody injected.
Assay [25] addresses T5, human PDGF-BB. The assay is described as follows: cell-based or functional assay. The source holds these as a separate data set.
For assay [26], the target named is T5, human PDGF-BB. The assay is described as follows: competition ELISA; biotinylated human PDGF-BB with antibody on coated Fc-tagged PDGF-BB receptor (competitor).
Method: as §3
Assay [27] deals with T5, human PDGF-BB. Nature of the assay: SPR; apparent KD of the Fab.
Assay [28] deals with T5, human PDGF-BB. Nature of the assay: SPR; Fab.
The target of assay [29] is T5, human PDGF-BB. Nature of the assay: SPR (BIAcore T200); PDGF-BB coupled on CM3 chip, Fab injected.

Where two headings read alike, the source gives them in different places.

The EC50 is the concentration that produces a half-maximal response. A higher EC50 goes with weaker potency. One may read the koff as the first-order rate constant of dissociation. What is called kon is the second-order rate constant of association. The term IC50 denotes the midpoint of a concentration-inhibition curve. Higher therefore signals weaker potency. In general, t½ refers to how long it takes for the measured level to halve.

T4 sequence (P10749 118-269 limits assumed): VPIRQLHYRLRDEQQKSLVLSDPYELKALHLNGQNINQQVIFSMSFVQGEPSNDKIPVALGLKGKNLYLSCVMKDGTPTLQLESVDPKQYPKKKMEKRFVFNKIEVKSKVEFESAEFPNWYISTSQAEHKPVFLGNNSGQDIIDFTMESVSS
Method for rat IL-1beta: as §2

B1: IL-1beta-mumAb (antibody, V domains shown)
VH: EVQLQQSGPELEKPGASVKISCKASGYSFTDYNMNWVRQSNGKSLEWIGNIDPYYGGTTYNQKFKDKATLTVDKSSSTAYMQLKSLTSEDSAVYYCAREGSPTRYYVMDYWGQGTSVTVSS
VL: DIQMTQSPASLSASVGETVTITCRASENIYSNLAWYQQKQGKSPQLLVYAATNLADGVPSRFSGSGSGTQFSLKINSLQPEDFGSYYCHHFYNTPWTFGGGTKLEIK
notes: Murine antibody; also called murine anti-human IL-1beta antibody
Take B1: the EC50 stood at 0.034 µg/mL with human IL-1beta [1]; 0.227 nM with human IL-1beta [4]; 0.0152 µg/mL in assay [6]; 0.142 nM with cynomolgus IL-1beta [7]; 0.0213 µg/mL with cynomolgus IL-1beta [8]; 0.101 nM in assay [9]. Also, the EC50 with murine IL-1beta [10] amounted to 0.154 nM; with murine IL-1beta [11] it was 0.0231 µg/mL. Also, the Kd in the assay with rat IL-1beta was 0.31 nM; in the assay with murine IL-1beta [12], 0.49 nM; in the assay with human IL-1beta [14] it was 0.07 nM; with rabbit IL-1beta it was 1.4 nM; in the assay with cynomolgus IL-1beta [19], 0.08 nM. Also, the koff worked out at 0.000636 s⁻¹ with rat IL-1beta, 0.00122 s⁻¹ in the assay with murine IL-1beta [12], 7.5e-05 s⁻¹ in the assay with human IL-1beta [14] and 9.5e-05 s⁻¹ with cynomolgus IL-1beta [19]. Also, the kon with rat IL-1beta came out at 2.04e+06 M⁻¹ s⁻¹; with murine IL-1beta [12] it was 2.47e+06 M⁻¹ s⁻¹; in the assay with human IL-1beta [14], 1.12e+06 M⁻¹ s⁻¹; with cynomolgus IL-1beta [19], 1.15e+06 M⁻¹ s⁻¹. The IC50 in assay [2] was determined as 0.231 µg/mL; with human IL-1beta [13], 2.5 nM; in [15] it was 1.54 nM; in assay [16], 0.132 µg/mL; in assay [17] it was 0.88 nM. In addition, the “IC50, inhibition of ICAM-1 expression upon IL-1beta stimulation of A549 cells” value with human IL-1beta [3] is 0.7 nM. In addition, in the assay with human IL-1beta [5], the “IC50, inhibition of ICAM-1 expression upon IL-1beta stimulation of HUVEC cells” value is 16.5 nM. Further, the “EC50, reduction of IL-6 expression upon IL-1beta stimulation of A549 cells” value with human IL-1beta [18] is 1.09 nM.

B2: PDGF-B-mumAb (antibody, V domains shown)
VH: QVQLQQSGAELMKPGASVKISCKATGYTFSSYWIEWVKQRPGHGLEWIGEILPGSGSTNYNEKFKVKATFTADTSSNTAYMQLSSLTSEDSAVYYCAQTTQDFDSWGQGTTLTVSS
VL: DIVLTQSPGSLAVSLGQRATISCRASESVDIYGYSFMHWYQQKPGQPPKLLIYRASNLESGIPARFSGSGSRTDFTLTINPVEADDVATYYCQQSNEDPRTFGGGTKLEIK
notes: Murine antibody; also called murine anti-human PDGF-B antibody
B2 registered a T½ in the assay with human PDGF-BB [20] of 47.8 min. The “IC50 Phospho-Inhibition” value in the assay with human PDGF-BB [21] and in the assay with human PDGF-BB [25] was 0.0017 µg/mL each time. For the same molecule, the “IC50 Proliferation 3T3” value in the assay with human PDGF-BB [21] and with human PDGF-BB [25] was 0.0551 µg/mL each time. For the same molecule, the EC50 came to 0.0163 µg/mL in the assay with human PDGF-BB [22], 0.0088 µg/mL with murine PDGF-BB, 0.00204 µg/mL with human PDGF-AA and 0.00512 µg/mL with rat PDGF-BB. In addition, the Kd in the assay with human PDGF-BB [23] was found to be 0.042 nM. The molecule also returned a koff with human PDGF-BB [24] of 0.00045 s⁻¹. Moreover, the t½ in the assay with human PDGF-BB [24] was determined as 26 min. Also, in the assay with human PDGF-BB [26], the IC50 was determined as 0.0122 µg/mL.

B3: PDGF-B-mumAb Fab (Fab, V domains shown)
VH: B2 VH
VL: B2 VL
notes: Fab fragment of PDGF-B-mumAb
Consider B3, for which the Kd with human PDGF-BB [27] worked out at 5 nM. The molecule further came in with a T½ with human PDGF-BB [28] of 5.75 min. Besides, in the assay with human PDGF-BB [29], the Kd came out at 5 nM, the koff stood at 0.00201 s⁻¹, the kon came to 439000 M⁻¹ s⁻¹ and the t½ is 5.75 min.
